From patent publication US20210230272A1
pEC50: −log10 of the molar value. Each block holds one substance with its values, some of them ahead of it.

Experiments:
[1] = biological target: IL10 antibody (Sino biological, Cat #SEKA10947); experiment: ELISA, same conditions as the antigen-coated ELISA
human PD-L1 (human) [2] = biological target: human PD-L1 (human) (UniProt Q9NZQ7); experiment: ELISA, PD-L1 coated; control of LB319
human PD-L1 (human) [3] = biological target: human PD-L1 (human) (UniProt Q9NZQ7); experiment: ELISA, PD-L1 coated; control of LB320
human CLDN18.2 (human) [4] = biological target: human CLDN18.2 (human) (UniProt P56856); experiment: flow cytometry, CF488 labeled antibody 1 µg/ml, hCLDN18.2+ cells
human CLDN18.2 (human) [5] = biological target: human CLDN18.2 (human) (UniProt P56856); experiment: flow cytometry, CF633 labeled antibody 1 µg/ml, hCLDN18.2+ cells
mice CLDN18.2 (mice) = mice CLDN18.2 (mice) (UniProt P56857); experiment: cell ELISA, mCLDN18.2+ cells
human CLDN18.2 (human) [6] = biological target: human CLDN18.2 (human) (UniProt P56856); experiment: flow cytometry, CF633 labeled antibody 10 µg/ml, hCLDN18.2+ cells
human CLDN18.2 (human) [7] = biological target: human CLDN18.2 (human) (UniProt P56856); experiment: flow cytometry, CF488 labeled antibody 10 µg/ml, hCLDN18.2+ cells

human PD-L1 (human), sequence (Q9NZQ7 19-238): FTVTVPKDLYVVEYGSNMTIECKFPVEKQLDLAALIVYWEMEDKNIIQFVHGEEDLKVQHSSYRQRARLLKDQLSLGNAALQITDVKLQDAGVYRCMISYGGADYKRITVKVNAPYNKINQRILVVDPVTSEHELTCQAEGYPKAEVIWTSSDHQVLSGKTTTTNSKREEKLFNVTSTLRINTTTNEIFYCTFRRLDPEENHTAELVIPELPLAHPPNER

pEC50 [1]: 8.34
Substance: IL10 (Peprotech, Cat #: 200-10) (from UniProt P22301 19-178) (ligand)

pEC50 (human PD-L1 (human) [2]): 10.14 | pEC50 (human PD-L1 (human) [3]): 10.14
Substance: LB318 (Durvalumab) (antibody)

Binding value (FACS fluorescence intensity) (human CLDN18.2 (human) [4]): 1750 | Binding value (FACS fluorescence intensity) (human CLDN18.2 (human) [5]): 23 | Emax (mice CLDN18.2 (mice)): 0.19 | Binding value (FACS fluorescence intensity) (human CLDN18.2 (human) [6]): 23.2 | Binding value (FACS fluorescence intensity) (human CLDN18.2 (human) [7]): 3480
Substance: Neg IgG (antibody)
